Data published in patent US9951373B2, “Oplophorus-derived luciferases, novel coelenterazine substrates, and methods of use” (Promega Corporation, priority 2010, dated 2018).

B1: 9B8 opt: codon optimized version of the 9B8 variant (SEQ ID NO: 24) (protein)
chain: MVFTLEDFVGDWRQTAGYNLDQVLEQGGLSSLFQKLGVSVTPIQKIVLSGENGLKIDIHVIIPYEGLSGYQMGQIEKIFKVVYPVDDHHFKVILHYGTLVIDGVTPNMIDYFGRPYEGIAVFDGKKITVTGTLWNGNKIIDERLINPDGSLLFRVTINGVTGWRLCERILA
B2: Luc2: a firefly luciferase (SEQ ID NOs: 28 and 29) (protein, listed as Photinus pyralis)
chain: MEDAKNIKKGPAPFYPLEDGTAGEQLHKAMKRYALVPGTIAFTDAHIEVDITYAEYFEMSVRLAEAMKRYGLNTNHRIVVCSENSLQFFMPVLGALFIGVAVAPANDIYNERELLNSMGISQPTVVFVSKKGLQKILNVQKKLPIIQKIIIMDSKTDYQGFQSMYTFVTSHLPPGFNEYDFVPESFDRDKTIALIMNSSGSTGLPKGVALPHRTACVRFSHARDPIFGNQIIPDTAILSVVPFHHGFGMFTTLGYLICGFRVVLMYRFEEELFLRSLQDYKIQSALLVPTLFSFFAKSTLIDKYDLSNLHEIASGGAPLSKEVGEAVAKRFHLPGIRQGYGLTETTSAILITPEGDDKPGAVGKVVPFFEAKVVDLDTGKTLGVNQRGELCVRGPMIMSGYVNNPEATNALIDKDGWLHSGDIAYWDEDEHFFIVDRLKSLIKYKGYQVAPAELESILLQHPNIFDAGVAGLPDDDAGELPAAVVVLEHGKTMTEKEIVDYVASQVTTAKKLRGGVVFVDEVPKGLTGKLDARKIREILIKAKKGGKIAV

How the values were obtained:
[1] = Thermal stability of OgLuc variants at 60° C.; assay type: physicochemical; settings: luminescence at start of incubation (t=0), PBI-3939
Experimental: Aliquots were removed at different time-points and placed on dry ice to freeze the samples. […] Luminescence was measured on a GLOMAX® luminometer (Promega Corp.).
The thermal stability of the variants at 60° C. was examined as described above, except the assay buffer contained 100 mM MES pH 6.0 instead of HEPES.

[2] = Brightness of purified OgLuc variant compared to firefly luciferase; assay type: biochemical
Experimental: The 9B8 OgLuc variant was overexpressed and purified as described in Example 33. Reactions between diluted enzyme and substrate were performed using the following 2× buffer/assay reagent: 100 mM MES pH 6.0, 1 mM CDTA, 150 mM KCl, 35 mM thiourea, 2 mM DTT, 0.25% TERGITOL® NP-9 (v/v), 0.025% MAZU® DF 204, 10 mg/mL 2-hydroxy-β-cyclodextrin, and 20 μM PBI-3939. The final assay concentrations of purified enzyme and substrate were 0.5 pM and 10 μM, respectively. In parallel, reactions between diluted purified firefly luciferase (i.e., QUANTILUM® Recombinant Luciferase (Promega Corp.)) and luciferin were analyzed. The assay buffer/reagent for the firefly luciferase reaction was BRIGHT-GLO™, and the final assay concentrations were 0.5 pM enzyme and 500 μM luciferin. As the buffers/reagents for each reaction were known to provide “glow” kinetics, a 15 min time point was used to collect luminescence data.

[3] = system: cAMP response element (CRE); test: Transcriptional reporter, forward transfection, CRE in HEK293 cells; assay type: cell-based, human; settings: 3 h; for baseline: 10 nM FSK
Experimental: HEK293 cells were plated at 15,000 cells/well in six 96-well tissue culture plates. Cells were grown in 100 μL of DMEM+10% FBS+1× non-essential amino acids (NEAA) and incubated overnight at 37° C. The cells were transiently transfected with either 10 ng or 100 ng plasmid DNA/well of pGL4.29 9B8 opt, pGL4.29 9B8 opt-P, or pGL4.29. Plasmid DNA was mixed with 850 μL of OPTI-MEMO (Invitrogen) and 32.4 μL of FUGENE® HD transfection reagent (Promega Corp.) and incubated at room temperature for 10 min. Eight μL of the transfection/reporter DNA mixture was added to the appropriate wells (2 constructs/plate). Cells were incubated for 4 hrs at 37° C. The medium was replaced with OPTI-MEM®+0.5% dialyzed FBS+1×NEAA+1× sodium pyruvate+1× Penn-Strep and incubated overnight at 37° C.
A lytic reagent containing 100 mM MES pH 6.1, 1 mM CDTA, 150 mM KCl, 35 mM thiourea, 2 mM DTT, 0.25% TERGITOLO NP-9 (v/v), 0.025% MAZUO DF 204, and 20 μM PBI-3939 was added to the cells containing pGL4.29 9B8 opt or pGL4.29 9B8 opt-P and allowed to incubated for 10 min at room temperature (100 μL lytic reagent added to 100 μL cells). ONE-GLO™ assay reagent (Promega Corp.) was added to cells containing pGL4.29 and used according to the manufacturer's protocol (100 μL reagent added to 100 μL cells). Luminescence was measured on a GLOMAX® Luminometer.

[4] = system: antioxidant response element (ARE); test: Transcriptional reporter, reverse transfection, ARE in HEK293 cells; assay type: cell-based, human; settings: 100 ng DNA, 24 h
Experimental: HEK293 cells were trypsinized (T75 flask, 3 mL trypsin) and resuspended in […] (approximately 8.9×10^6 total cells) in medium containing DMEM+10% FBS+1×NEAA. Each transcriptional reporter was prepared for transfection by mixing 1.2 mL OPTI-MEM®, 12 μL transcription reporter DNA (100 ng) and 36 μL FUGENE® HD transfection reagent together and incubated at room temperature for 35 min. Following incubation, 624 μL of the transfection/reporter DNA mixture was added to 12 mL of cell suspension and mixed by inversion. After mixing, 100 μL of the cell/DNA mixture was added to wells of a 96-well plate (2 constructs/plate). The cells were incubated at 37° C. for 22 hrs. Tert-butylhydroquinone (a Nrf2 stabilizer; tBHQ; 1 μM (“baseline”) or 20 μM) or sulphoraphane, (an organosulfer antioxidant known to activate Nrf2; 1 μM (“baseline”) or 20 μM) in OPTI-MEM® was added to each well and incubated at 37° C. for 24 hrs. Cells were lysed with 100 μL lytic reagent as described above for the forward transfection. Luminescence was measured on a GLOMAX® Luminometer.

CRE [5] = test: Transcriptional reporter, bulk transfection, CRE in HEK293 cells; assay type: cell-based, human; settings: HEK293, 10 nM FSK, 4 h
Experimental: (§1) The transcriptional reporter containing HRE and 9B8 opt-P was used in the bulk transfection of HeLa cells
(§2) HEK293, NIH3T3, or HeLa cells were plated to a single well of a 6-well tissue culture plate the day before transfection at a density of 4.5×10^5 cells/well in 3 mL complete medium (DMEM+10% FBS+1×NEAA+1× sodium pyruvate) for HEK293 cells, 3×10^5 cells/well in 3 mL complete medium (DMEM+10% fetal calf serum (FCS)+1×NEAA+1× sodium pyruvate) for NIH3T3 cells, or 9.9×10^5 cells/well in 3 mL complete medium (DMEM+10% FBS+1×NEAA) for HeLa cells. Cells were grown overnight at 37° C.
(§3) 3,300 ng of reporter plasmid DNA in 155 μL OPTI-MEM® was mixed with 9.9 μL FUGENE® HD transfection reagent, vortexed briefly, and incubated at room temperature for 10 min. The CRE transcriptional reporters were used to transfect HEK293 and NIH3T3 cells. The HRE transcriptional reporters were used to transfect HeLa cells. The reporter mixture was added to cells and mixed by gentle rocking followed by incubation at 37° C. for 6 hrs (HEK293 and NIH3T3) or 3 hrs (HeLa). […]
(§4) FSK (CRE stimulator) or 17-AAG (HRE stimulator; 17-Allylamino-demethoxy geldanamycin) in OPTI-MEM® was added to the cells (10 nM or 10 μM final concentration for FSK; 1 nM or 1 μM final concentration for 17-AAG) and incubated at 37° C. for 4 hrs (FSK) or 6 hrs (17-AAG). […] Luminescence was measured on a GLOMAX® Luminometer.

CRE [6] = test: Transcriptional reporter, bulk transfection, CRE in NIH3T3 cells; assay type: cell-based; settings: NIH3T3, 10 nM FSK, 4 h
Experimental: as §1, §2, §3, §4

[7] = system: cAMP-response element (CRE); test: cAMP transcriptional reporter in HEK293 cells; settings: for fold-induction: FSK 5 hrs
HEK293 cells = test: Luminescence of luciferases in lysed HEK293 cells (codon optimization); assay type: cell-based, human; settings: normalized
Experimental: Codon optimized versions of IV (“IV opt” (SEQ ID NO: 22) and “IV optB” (SEQ ID NO: 23)) and 9B8 (“9B8 opt” (SEQ ID NO: 24) and “9B8 optB” (SEQ ID NO: 25)) were generated and cloned into pF4Ag by methods known in the art. HEK293 cells were plated in 96-well plates at 15,000 cells/well and grown overnight at 37° C. The following day, the cells were transiently transfected in 6 well replicates using TRANSIT®-LT1 Transfection Reagent (Mirus Bio) with 100 ng of plasmid DNA encoding the codon optimized versions in pF4Ag and grown overnight at 37° C. HEK293 cells were also transfected with either pGL4.13 (Luc2/SV40) (Paguio et al., “pGL4 Vectors: A New Generation of Luciferase Reporter Vectors” Promega Notes, 89:7-10 (2005)) or pGL4.73 (hRL/SV40) (Id.) to normalize for differences in transfection efficiency. Ten ng/transfection or 10% of the total DNA transfected was used.
The OgLuc variants had higher luminescence compared to Luc2 and hRL.

Molecule	RLU [1]	fold brighter than QUANTILUM Recombinant Luciferase with BRIGHT-GLO [2]	luminescence ([2]; 0.5 pM purified enzyme, 15 min, 10 μM PBI-3939 or BRIGHT-GLO with 500 μM luciferin)	baseline ([3]; 10 ng DNA) [RLU]	RLU (10 µM FSK) ([3]; 10 ng DNA)	Response ([3]; 10 ng DNA)	baseline ([3]; 100 ng DNA)	RLU (10 µM FSK) ([3]; 100 ng DNA)	Response ([3]; 100 ng DNA)	RLU (20 μM sulphoraphane) [4]	RLU (20 μM tBHQ) [4]	baseline ([4]; 1 μM sulphoraphane)	baseline ([4]; 1 μM tBHQ)	baseline (CRE [5])	baseline (CRE [6])	fold-induction ([7]; 30 ng of DNA for transfection)	fold-induction ([7]; 100 ng of DNA for transfection)	induced luminescence higher than Luc2 transcriptional reporter ([7]; FSK induced)	induced luminescence higher than induced Renilla transcriptional reporter ([7]; FSK induced)	fold higher luminescence than hRL (HEK293 cells)
B1	23,283,252,000 RLU	approximately 8 fold	19,200 RLU	192810	12,926,465 RLU	67	3,078,418 RLU	104,687,723 RLU	34	89,600,000 RLU	120,000,000 RLU	15,600,000 RLU	15,100,000 RLU	39,700,000 RLU	9,187,000 RLU	360	109	approximately 1.5 logs	approximately 2.5 logs	–
B2	–	–	–	–	–	–	–	–	–	–	–	–	–	–	–	–	–	–	–	approximately 14 fold
